Experimental data published in patent US20190002588A1 (NATIONAL UNIVERSITY CORPORATION CHIBA UNIVERSITY, published 2019).
Numbering of substitutions follows the chain as printed. Numbers in names are those of the source. Each block holds one binder with its values, some of them ahead of it.

Legend:
[1] = molecular target: T1, human Myl12b-His (human, UniProt O14950 1-172); experiment: ELISA, human Myl12b-His coated, anti-human IgG-HRP
T1 construct: Made in E. coli; GST tag cleaved with PreScission Protease; DTT-treated monomer
T1 sequence: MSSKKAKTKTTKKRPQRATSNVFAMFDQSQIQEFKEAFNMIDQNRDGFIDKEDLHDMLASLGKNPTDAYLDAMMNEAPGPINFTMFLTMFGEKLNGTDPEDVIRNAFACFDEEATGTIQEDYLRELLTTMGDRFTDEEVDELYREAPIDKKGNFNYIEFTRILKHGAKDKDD
Method: (§1) The binding ability of chimeric and humanized antibodies prepared from Antibody A against human Myl12a and Myl12b was evaluated following the steps below by ELISA. Human Myl3-His, human Myl9-His, human Myl12a-His and human Myl12b-His were coated onto the wells of a 96-well plate (Nunc), respectively. After an overnight incubation at 4° C., the wells were blocked at room temperature for one hour with 1× Block Ace (DS Pharma Biomedical Co., Ltd.). After washing three times with 0.02% Tween 20/PBS, the chimeric and humanized antibodies were diluted at the concentration of 0.01, 0.1 and 1 μg/mL, respectively and added to the wells. After incubation at room temperature for one hour and washing three times, horseradish peroxidase-labeled anti-human IgG antibody (Jackson ImmunoResearch Laboratories) was added, and this was incubated at room temperature for one hour. After washing 5 times, TMBZ (3,3′,5,5′-tetramethylbenzidine) solution was added to the wells, and this was incubated for 5-20 minutes at room temperature. An equal amount of reaction quenching solution (2N H₂SO₄) was added to the wells, and absorbance at 450 nm was read with a microplate reader (Thermo Scientific).

[2] = molecular target: T2, human Myl9-His (human, UniProt P24844 2-172, limits assumed); experiment: ELISA, human Myl9-His coated, anti-human IgG-HRP
T2 construct: Made in E. coli; the GST tag was cleaved with PreScission Protease
T2 sequence: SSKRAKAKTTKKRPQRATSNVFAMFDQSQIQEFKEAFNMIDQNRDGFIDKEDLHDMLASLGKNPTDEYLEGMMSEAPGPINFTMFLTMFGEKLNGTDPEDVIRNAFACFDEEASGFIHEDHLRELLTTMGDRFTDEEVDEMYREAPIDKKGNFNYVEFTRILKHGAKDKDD
Method: (§2) The binding ability against human Myl9 was evaluated following the steps below by ELISA. Human Myl3-His and human Myl9-His were coated onto the wells of a 96-well plate (Nunc). After an overnight incubation at 4° C., the wells were blocked at room temperature for one hour with 1× Block Ace (DS Pharma Biomedical Co., Ltd.). After washing three times with 0.02% Tween 20/PBS, seven serial dilutions by six folds of the chimeric and humanized antibodies were made from a concentration of 10 μg/mL and added to the wells. After incubation at room temperature for one hour and washing three times, horseradish peroxidase-labeled anti-human IgG antibody (Jackson ImmunoResearch Laboratories) was added, and this was incubated at room temperature for one hour. After washing 5 times, TMBZ (3,3′,5,5′-tetramethylbenzidine) solution was added to the wells, and this was incubated for 5-20 minutes at room temperature. An equal amount of reaction quenching solution (2N H₂SO₄) was added to the wells, and absorbance at 450 nm was read with a microplate reader (PerkinElmer).

[3] = molecular target: T3, human Myl3-His (human, UniProt P08590 2-195, limits assumed); experiment: ELISA, human Myl3-His coated, anti-human IgG-HRP
T3 construct: Made in E. coli; the GST tag was cleaved with PreScission Protease
Method: as §2

[4] = molecular target: T4, human Myl12a-His (human, UniProt P19105 1-171); experiment: ELISA, human Myl12a-His coated, anti-human IgG-HRP
T4 construct: Made in E. coli; GST tag cleaved with PreScission Protease; DTT-treated monomer
T4 sequence: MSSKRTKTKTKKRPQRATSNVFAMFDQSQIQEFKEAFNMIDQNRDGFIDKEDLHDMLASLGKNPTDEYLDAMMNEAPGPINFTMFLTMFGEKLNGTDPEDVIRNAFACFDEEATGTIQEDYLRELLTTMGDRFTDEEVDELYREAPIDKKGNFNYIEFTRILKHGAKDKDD
Method: as §1

T3 sequence (P08590 2-195 limits assumed): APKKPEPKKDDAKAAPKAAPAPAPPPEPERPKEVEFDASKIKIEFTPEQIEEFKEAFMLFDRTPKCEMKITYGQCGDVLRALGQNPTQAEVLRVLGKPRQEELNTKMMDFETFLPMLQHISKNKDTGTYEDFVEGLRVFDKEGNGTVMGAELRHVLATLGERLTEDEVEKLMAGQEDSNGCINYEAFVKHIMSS

B1: Humanized antibody No. 126 (antibody, human IgG2, kappa, V domains shown)
VH: QVQLVQSGAEVKKPGSSVKVSCKASGYTFSDYEMHWVRQAPGQGLEWIGAIDPETGGTAYNQKFKGRATITADKSTSTAYMELRSLRSEDTAVYYCTDYDYDGFAYWGQGTLVTVSS
VL: DIVMTQTPLSSPVTLGQPASISCRSSQSLVHSNGNTYLHWYQQRPGQPPRLLISKVSNRFSGVPDRFSGSGAGTDFTLKISRVEAEDVGVYFCSQNTHVPPLTFGGGTKVEIKR
notes: human IgG2 (V234A, G237A, C-terminal Lys deleted) / kappa; Expi293F, Protein A purified; also called HK1-A/L4-2
binding result [1]: binds
binding result [2]: binds
binding result [3]: no binding (tested: 10 µg/mL)
binding result [4]: binds

B2: Humanized antibody No. 121 (antibody, human IgG2, kappa, V domains shown)
VH: B1 VH with S30T, I48M, N61A, K65Q, A68V, T97A
VL: B1 VL
notes: human IgG2 (V234A, G237A, C-terminal Lys deleted) / kappa; Expi293F, Protein A purified; also called HA1-6/L4-2
binding result [1]: binds
binding result [2]: binds
binding result [3]: no binding (tested: 10 µg/mL)
binding result [4]: binds

B3: Humanized antibody No. 125 (antibody, human IgG2, kappa, V domains shown)
VH: B1 VH with Y27G, I48M, T97A
VL: B1 VL
notes: human IgG2 (V234A, G237A, C-terminal Lys deleted) / kappa; Expi293F, Protein A purified; also called HK1-4/L4-2
binding result [1]: binds
binding result [2]: binds
binding result [3]: no binding (tested: 10 µg/mL)
binding result [4]: binds

B4: Humanized antibody No. 123 (antibody, human IgG2, kappa, V domains shown)
VH: B1 VH with Y27G, I48M, A68V, R84S, T97A
VL: B1 VL
notes: human IgG2 (V234A, G237A, C-terminal Lys deleted) / kappa; Expi293F, Protein A purified; also called HK1-5/L4-2
binding result [1]: binds
binding result [2]: binds
binding result [3]: no binding (tested: 10 µg/mL)
binding result [4]: binds

B5: Humanized antibody No. 129 (antibody, human IgG2, kappa, V domains shown)
VH: B1 VH with S16A, S30T, I48M, A68V, I70M, R84S, T97A
VL: B1 VL
notes: human IgG2 (V234A, G237A, C-terminal Lys deleted) / kappa; Expi293F, Protein A purified; also called HK2-9/L4-2
binding result [1]: binds
binding result [2]: binds
binding result [3]: no binding (tested: 10 µg/mL)
binding result [4]: binds

Now from value to binder:

binding result [1]: binds
binding result [2]: binds
binding result [3]: no binding (tested: 10 µg/mL)
binding result [4]: binds
B6: Humanized antibody No. 127 (antibody, human IgG2, kappa, V domains shown)
VH: B1 VH with S16A, S30T, I48M, A68V, I70M, K74T, R84S, T97A
VL: B1 VL
notes: human IgG2 (V234A, G237A, C-terminal Lys deleted) / kappa; Expi293F, Protein A purified; also called HK2-5/L4-2

binding result [1]: binds
binding result [2]: binds
binding result [3]: no binding (tested: 10 µg/mL)
binding result [4]: binds
B7: Humanized antibody No. 118 (antibody, human IgG2, kappa, V domains shown)
VH: B1 VH with S16A, S30T, I48M, A68V, I70M, R84S, T97A
VL: DIVMTQSPLSLSITPGEQASISCRSSQSLVHSNGNTYLHWYLQKPGQSPQLLISKVSNRFSGVPDRFSGSGSGTDFTLKISRVEAEDVGVYFCSQNTHVPPLTFGGGTKVEIKR
notes: human IgG2 (V234A, G237A, C-terminal Lys deleted) / kappa; Expi293F, Protein A purified; also called HK2-9/L1-5

binding result [1]: binds
binding result [2]: binds
binding result [3]: no binding (tested: 10 µg/mL)
binding result [4]: binds
B8: Humanized antibody No. 124 (antibody, human IgG2, kappa, V domains shown)
VH: B1 VH with Y27G, I48M, A68V, T97A
VL: B1 VL
notes: human IgG2 (V234A, G237A, C-terminal Lys deleted) / kappa; Expi293F, Protein A purified; also called HK1-6/L4-2
